For data set [1], the system named is Nc1ccn([C@@H]2O[C@H](COP(=O)(O)O)[C@@H](O)[C@H]2O)c(=O)n1. The data set can be described thus: purified protein. The conditions noted are these: pH 7.5; 37.0 °C.
For data set [2], the system named is Nc1ccn([C@H]2C[C@H](O)[C@@H](COP(=O)(O)O)O2)c(=O)n1. The experiment in a line: purified protein. The conditions noted are these: pH 7.5; 37.0 °C.
The data set “crystal structure” concerns the molecule itself. The experiment in a line: crystal structure.

For orientation: kcat/Km means the turnover number divided by the Michaelis constant. Broadly, the stoichiometry N is a count of units in the complex or per binding partner.

As for (Streptomyces rimofaciens), in data set [1], the Km is on record as 3.8 (0.5) mM and the kcat/Km was 5.2 M⁻¹ s⁻¹. Moreover, in data set [2], the Km is recorded as 5.4 (0.8) mM and the kcat/Km worked out at 1.1 M⁻¹ s⁻¹.

B1: SeMet MilB (selenomethionine-containing MilB, CMP hydrolase of Streptomyces rimofaciens ZJU5119) (enzyme, UniProt B4Y381 1-170, looked up)
chain: MTTTPKPRTAPAVGSVFLGGPFRQLVDPRTGVMSSGDQNVFSRLIEHFESRGTTVYNAHRREAWGAEFLSPAEATRLDHDEIKAADVFVAFPGVPASPGTHVEIGWASGMGKPMVLLLERDEDYAFLVTGLESQANVEILRFSGTEEIVERLDGAVARVLGRAGEPTVIG
modifications: selenomethionine (SeMet-containing protein)
Consider B1, for which the “stoichiometry N” value in the data set “crystal structure” is 2.

Values taken from publication PMC3750073 (Biochemistry, 2013).
